Test results reported in patent US20220363763A1 (ABL BIO, published 2022).
Like-named read-outs stand apart in the source and are kept apart here.

Key:
[1] = target: T1, human PD-L1-his taq protein (human, UniProt Q9NZQ7 19-239, limits assumed); assay: SPR Biacore T200, antibody captured, PD-L1-his injected
T1 construct: also called recombinant PD-L1 protein; recombinant human PD-L1; not shown: his tag
Summary of the method: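 HL1210-3 mouse mAb was captured via anti-mouse Fc antibody on a CM5 chip, then serially diluted PD-L1-his was injected for 3 min […]. Dissociation was followed for 900 s.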

[2] = target: T2, human PD-L1 (construct not stated) (human, UniProt Q9NZQ7 19-239, limits assumed); assay: BLI Octet Red 96, affinity ranking
T2 construct: also called B7-H1 (PD-L1); PD-L1 protein
Excerpt: To explore the binding kinetics of the humanized antibody, this example performed the affinity ranking by using Octet Red 96.

[3] = target: T3, human PD-L1 expressed on mammalian cells (human, UniProt Q9NZQ7 19-290); assay: flow cytometry (MFI) on PDL1-CHOK1 cells; EC50 table has no unit, x axis Antibodies(nM)
T3 construct: whole, on cells; also called PDL1-CHOK1 cells; PDL1-Raji cells
Procedure: (§1) To evaluate the antigen binding property, the humanized antibodies were analyzed for its binding to mammalian expressed PD-L1 by FACS. Briefly, PDL1-CHOK1 cells were firstly incubated with 5-fold serious diluted humanized antibodies starting at 2 μg/ml at RT for 1 hour. After wash by FACS buffer (PBS with 2% FBS), the alexa 488-anti-human IgG antibody was added to each well and incubated at RT for 1 hour. The MFI of Alexa 488 was evaluated by FACSAriaIII.

[4] = target: T3, human PD-L1 expressed on mammalian cells; assay: FACS receptor blocking on PDL1-CHOK1 cells, competitor Bio-PD1 (30 µg/ml)
Procedure: To evaluate the blocking effect of humanized antibodies on human PD-L1 expressed on mammalian cells to bind to its receptor PD-1, the FACS-based receptor blocking assay was employed. Briefly, PDL1-CHOK1 cells were firstly incubated with 3-fold serious diluted HL1210-3 mouse mAb starting at 20 μg/ml at RT for 1 hour. After wash by FACS buffer (PBS with 2% FBS), the biotin-labeled huPD-1 were added to each well and incubated at RT for 1 hour. Then, the Streptavidin-PE was added to each well for 0.5 hour post twice wash with FACS buffer. The mean florescence intensity (MFI) of PE was evaluated by FACSAriaIII.

[5] = target: T4, human PD-L1-Fc protein (human, UniProt Q9NZQ7 19-239); assay: ELISA on coated human PD-L1-Fc; EC50 table has no unit, x axis Ab(nM)
T4 construct: Coated on ELISA plates; also called huPD-L1; not shown: Fc part
Procedure: (§2) To evaluate the antigen binding activity, the humanized antibodies were subjected to ELISA test. Briefly, microtiter plates were coated with human PD-L1-Fc protein at 0.1 μg/ml in PBS, 100 μl/well at 4° C. overnight, then blocked with 100 μl/well of 5% BSA. Five-fold dilutions of humanized antibodies starting from 10 μg/ml were added to each well and incubated for 1-2 hours at RT. The plates were washed with PBS/Tween and then incubate with […] antibody conjugated with Horse Radish Peroxidase (HRP) for 1 hour at RT. After washing, the plates were developed with TMB substrate and analyzed by spectrophotometer at OD 450-630 nm.

[6] = target: T3, human PD-L1 expressed on mammalian cells; assay: flow cytometry (MFI) on PDL1-CHOK1 cells; EC50 table has no unit, x axis Antibodies(nM); remark: listed apart in the source
Procedure: as §1

[7] = target: T4, human PD-L1-Fc protein; assay: ELISA on coated human PD-L1-Fc; EC50 table has no unit, x axis Ab(nM); remark: listed apart in the source
Procedure: as §2

[8] = target: T4, human PD-L1-Fc protein; assay: as above; remark: listed apart in the source
Procedure: as §2

[9] = target: T3, human PD-L1 expressed on mammalian cells; assay: flow cytometry (MFI) on PDL1-CHOK1 cells; EC50 table has no unit, x axis Antibodies(nM); remark: listed apart in the source
Procedure: as §1

[10] = target: T4, human PD-L1-Fc protein; assay: ELISA on coated human PD-L1-Fc; EC50 table has no unit, x axis Ab(nM); remark: listed apart in the source
Procedure: as §2

[11] = target: T4, human PD-L1-Fc protein; assay: as above; remark: listed apart in the source
Procedure: as §2

[12] = target: T4, human PD-L1-Fc protein; assay: ELISA on coated human PD-L1-Fc, panel PD-L1
Excerpt: To evaluate the binding activity to PD-L1 and LAG3 of the bispecific antibodies (BsAb; H12x147 and 147xH12) prepared in Example 3, the BsAb were subjected to ELISA test.

[13] = target: T2, human PD-L1 (construct not stated); assay: SPR Biacore, capture method
Procedure: (§3) The binding affinities of bispecific antibodies PD-L1 and LAG3 of the bispecific antibodies (BsAb; 147xH12, 147H3807xB6 and B6x147H3807) prepared in Example 3 to PD-L1 protein and human LAG3 protein were tested with BIACORE™ using a capture method.

[14] = target: T5, human LAG3 (construct not stated) (human, UniProt P18627 23-450, limits assumed); assay: SPR Biacore, capture method
T5 construct: also called human LAG3 protein; antigen
T5 sequence (looked up): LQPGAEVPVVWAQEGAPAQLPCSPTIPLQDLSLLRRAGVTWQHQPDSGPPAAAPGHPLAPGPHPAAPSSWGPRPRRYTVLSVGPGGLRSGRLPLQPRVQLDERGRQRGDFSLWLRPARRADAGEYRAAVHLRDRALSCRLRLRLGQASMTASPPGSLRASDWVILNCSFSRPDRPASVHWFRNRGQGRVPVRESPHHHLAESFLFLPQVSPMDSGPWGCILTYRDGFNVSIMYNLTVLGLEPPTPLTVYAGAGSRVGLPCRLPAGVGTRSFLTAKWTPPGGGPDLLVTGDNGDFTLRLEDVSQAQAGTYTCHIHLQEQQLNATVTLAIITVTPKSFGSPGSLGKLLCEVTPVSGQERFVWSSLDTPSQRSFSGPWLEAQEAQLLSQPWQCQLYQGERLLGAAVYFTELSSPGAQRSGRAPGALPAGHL
Procedure: as §3

T3 sequence (Q9NZQ7 19-290): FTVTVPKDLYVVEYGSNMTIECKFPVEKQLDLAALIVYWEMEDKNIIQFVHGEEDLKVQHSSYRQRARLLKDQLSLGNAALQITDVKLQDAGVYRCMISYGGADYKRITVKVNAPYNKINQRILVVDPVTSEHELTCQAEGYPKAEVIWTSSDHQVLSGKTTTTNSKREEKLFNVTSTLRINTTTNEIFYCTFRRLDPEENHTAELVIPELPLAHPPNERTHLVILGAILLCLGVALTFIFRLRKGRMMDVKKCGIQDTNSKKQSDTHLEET
T1 sequence (Q9NZQ7 19-239 limits assumed): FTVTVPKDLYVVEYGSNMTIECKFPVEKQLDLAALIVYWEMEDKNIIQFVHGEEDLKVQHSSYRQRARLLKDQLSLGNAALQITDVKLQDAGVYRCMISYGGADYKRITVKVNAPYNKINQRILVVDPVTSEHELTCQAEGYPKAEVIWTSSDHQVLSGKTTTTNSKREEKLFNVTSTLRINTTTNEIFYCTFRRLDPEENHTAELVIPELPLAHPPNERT
T2 sequence (Q9NZQ7 19-239 limits assumed): as above
T4 sequence (Q9NZQ7 19-239 limits assumed): as above

Binder	Kd [1]	koff [1]	kon [1]	Kd [2]	koff [2]	kon [2]	TOP [4]	EC50 [6]	EC50 [7]	Kd [13]	Kd [14]	further results
Hu1210-8 (antibody, V domains shown, Hu1210 VH.1a x Vk.1a; human gamma 1 / kappa constant domains) VH: EVQLVESGGGLVKPGGSLRLSCAASGFTFSSYDMSWVRQAPGKGLEWVATISDGGGYIYYSDSVKGRFTISRDNAKNSLYLQMNSLRAEDTAVYYCAREFGKRYALDYWGQGTTVTVSS VL: DIQMTQSPSSLSASVGDRVTITCKASQDVTPAVAWYQQKPGKSPKLLIYSTSSRYTGVPSRFSGSGSGTDFTFTISSLQPEDIATYYCQQHYTTPLTFGQGTKLEIK	0.767 nM	7.17e-05 s⁻¹	93500 M⁻¹ s⁻¹	1.64 nM	0.000127 s⁻¹	77200 M⁻¹ s⁻¹	86.3	–	–	–	–	EC50 [3]: 1.23 nM; EC50 [5]: 0.186 nM
Hu1210-16 (antibody, V domains shown, Hu1210 VH.4a x Vk.1; human gamma 1 / kappa constant domains) VH: EVQLVESGGGLVQPGGSLRLSCAASGFTFSSYDMSWVRQAPGKGLEWVATISDGGGYIYYSDSVKGRFTISRDNAKNSLYLQMNSLRDEDTAVYYCAREFGKRYALDYWGQGTTVTVSS VL: DIQMTQSPSSLSASVGDRVTITCKASQDVTPAVAWYQQKPGKAPKLLIYSTSSRYTGVPSRFSGSGSGTDFTFTISSLQPEDIATYYCQQHYTTPLTFGQGTKLEIK	0.672 nM	6.7e-05 s⁻¹	99800 M⁻¹ s⁻¹	3.14 nM	0.000264 s⁻¹	84100 M⁻¹ s⁻¹	88	1.41 nM	0.179 nM	–	–	–
Hu1210-14 (antibody, V domains shown, Hu1210 VH.3a x Vk.1; human gamma 1 / kappa constant domains) VH: EVQLLESGGGLVQPGGSLRLSCAASGFTFSSYDMSWVRQAPGKSLEWVATISDGGGYIYYSDSVKGRFTISRDNSKNTLYLQMNSLRAEDTAVYICAREFGKRYALDYWGQGTTVTVSS VL: DIQMTQSPSSLSASVGDRVTITCKASQDVTPAVAWYQQKPGKAPKLLIYSTSSRYTGVPSRFSGSGSGTDFTFTISSLQPEDIATYYCQQHYTTPLTFGQGTKLEIK	0.435 nM	5.29e-05 s⁻¹	122000 M⁻¹ s⁻¹	2.34 nM	0.000197 s⁻¹	84100 M⁻¹ s⁻¹	79.6	1.46 nM	0.163 nM	–	–	–
Hu1210-22 (antibody, V domains shown, Hu1210 VH.4b x Vk.1a; human gamma 1 / kappa constant domains) VH: EVQLVESGGGLVQPGGSLRLSCAASGFTFSSYDMSWVRQAPGKSLEWVATISDGGGYIYYSDSVKGRFTISRDNAKNSLYLQMNSLRDEDTAVYICAREFGKRYALDYWGQGTTVTVSS VL: DIQMTQSPSSLSASVGDRVTITCKASQDVTPAVAWYQQKPGKSPKLLIYSTSSRYTGVPSRFSGSGSGTDFTFTISSLQPEDIATYYCQQHYTTPLTFGQGTKLEIK	–	–	–	2.56 nM	0.00023 s⁻¹	90000 M⁻¹ s⁻¹	85.8	–	–	–	–	EC50 [8]: 0.148 nM; EC50 [9]: 1.17 nM
H1210 chimera (antibody, V domains shown, also called chimeric antibody) VH: EVKLVESGGDLVKPGGSLKLSCAASGFTFSSYDMSWVRQTPEKSLEWVATISDGGGYIYYSDSVKGRFTISRDNAKNNLYLQMSSLRSEDTALYICAREFGKRYALDYWGQGTSVTVSS VL: DIVMTQSHKFMSTSVGDRVSISCKASQDVTPAVAWYQQKPGQSPKLLIYSTSSRYTGVPDRFTGSGSGTDFTFTISSVQAEDLAVYYCQQHYTTPLTFGAGTKLELK	0.264 nM	3.27e-05 s⁻¹	124000 M⁻¹ s⁻¹	1.07 nM	0.000173 s⁻¹	162000 M⁻¹ s⁻¹	87.2	0.95 nM	0.139 nM	–	–	EC50 [8]: 0.169 nM; EC50 [10]: 0.17 nM; EC50 [11]: 0.16 nM; EC50 [3]: 0.95 nM; EC50 [9]: 0.95 nM; EC50 [5]: 0.177 nM
H12x147(H3807) (bispecific antibody, human IgG1, kappa, N297A) heavy chain of H12 (IgG) - linker - scFv of 147(H3807) (VL - linker - VH): not shown light chain of H12: DIQMTQSPSSLSASVGDRVTITCKASQDVTPAVAWYQQKPGKAPKLLIYSTSSRYTGVPSRFSGSGSGTDFTFTISSLQPEDIATYYCQQHYTTPLTFGQGTKLEIKRTVAAPSVFIFPPSDEQLKSGTASVVCLLNNFYPREAKVQWKVDNALQSGNSQESVTEQDSKDSTYSLSSTLTLSKADYEKHKVYACEVTHQGLSSPVTKSFNRGEC	–	–	–	–	–	–	–	–	–	–	–	EC50 (read off the curve) [12]: ~1 nM
B6x147(H3807) (bispecific antibody, human IgG1, kappa, N297A) heavy: not shown light: DIQMTQSPSSLSASVGDRVTITCKASQDVTPAVAWYQQKPGKAPKLLIYSTSSRYTGVPSRFSGSGSGTDFTFTISSLQPEDIATYYCQQHYTTPLTFGQGTKLEIKRTVAAPSVFIFPPSDEQLKSGTASVVCLLNNFYPREAKVQWKVDNALQSGNSQESVTEQDSKDSTYSLSSTLTLSKADYEKHKVYACEVTHQGLSSPVTKSFNRGEC	–	–	–	–	–	–	–	–	–	1.18 nM	8.87 nM	EC50 (read off the curve) [12]: ~0.3 nM
147xH12 (bispecific antibody, human IgG4 S228P, kappa, also called A3L1) heavy: not shown light: DIVMTQSPLSLPVTPGEPASISCRSSKSLLHSNGITYLYWYLQKPGQSPQLLIYQVSNLASGVPDRFSGSGSGTDFTLKISRVEAEDVGVYYCAQNLELPWTFGGGTKVEIKRTVAAPSVFIFPPSDEQLKSGTASVVCLLNNFYPREAKVQWKVDNALQSGNSQESVTEQDSKDSTYSLSSTLTLSKADYEKHKVYACEVTHQGLSSPVTKSFNRGEC	–	–	–	–	–	–	–	–	–	27.4 nM	13.5 nM	–
147(H3807)xB6 (bispecific antibody, human IgG4 S228P, kappa) heavy: not shown light: DIVMTQSPLSLPVTPGEPASISCRSSKSLLHSQGITYLYWYLQKPGQSPQLLIYQVSNLASGVPDRFSGSGSGTDFTLKISRVEAEDVGVYYCAQYLELPWTFGGGTKVEIKRTVAAPSVFIFPPSDEQLKSGTASVVCLLNNFYPREAKVQWKVDNALQSGNSQESVTEQDSKDSTYSLSSTLTLSKADYEKHKVYACEVTHQGLSSPVTKSFNRGEC	–	–	–	–	–	–	–	–	–	5.94 nM	1.63 nM	–
